Test results taken from patent US20180339017A1 (Merck Sharp & Dohme, published 2018).
Starred links: 1 amine or outer side, 2 acyl side, 3 side chain; linkers in the order of their positions; H or OH if unused. Non-standard residues stand in square brackets, D forms with d. Groups on a side chain read outwards from the residue. No end group written: not given here. *: point of attachment. γGlu = O=C(O)[C@H](CCC(=O)[*:2])N[*:1]; Palmitoyl = CCCCCCCCCCCCCCCC(=O)*

B1: TP534 (peptide)
peptide: H[dS]QGTFTSDK([γGlu-γGlu-Palmitoyl])SKYLDNKRAQDFVQWLMQT-NH2
modifications: N-terminus assumed
SMILES: CCCCCCCCCCCCCCCC(=O)N[C@@H](CCC(=O)N[C@@H](CCC(=O)NCCCC[C@H](NC(=O)[C@H](CC(=O)O)NC(=O)[C@H](CO)NC(=O)[C@@H](NC(=O)[C@H](Cc1ccccc1)NC(=O)[C@@H](NC(=O)CNC(=O)[C@H](CCC(N)=O)NC(=O)[C@@H](CO)NC(=O)[C@@H](N)Cc1c[nH]cn1)[C@@H](C)O)[C@@H](C)O)C(=O)N[C@@H](CO)C(=O)N[C@@H](CCCCN)C(=O)N[C@@H](Cc1ccc(O)cc1)C(=O)N[C@@H](CC(C)C)C(=O)N[C@@H](CC(=O)O)C(=O)N[C@@H](CC(N)=O)C(=O)N[C@@H](CCCCN)C(=O)N[C@@H](CCCNC(=N)N)C(=O)N[C@@H](C)C(=O)N[C@@H](CCC(N)=O)C(=O)N[C@@H](CC(=O)O)C(=O)N[C@@H](Cc1ccccc1)C(=O)N[C@H](C(=O)N[C@@H](CCC(N)=O)C(=O)N[C@@H](Cc1c[nH]c2ccccc12)C(=O)N[C@@H](CC(C)C)C(=O)N[C@@H](CCSC)C(=O)N[C@@H](CCC(N)=O)C(=O)N[C@H](C(N)=O)[C@@H](C)O)C(C)C)C(=O)O)C(=O)O
B2: TP536 (peptide)
peptide: H[dS]QGTFLSDK([γGlu-γGlu-Palmitoyl])SKLLDSRRAQDFVQWLMQT-NH2
modifications: N-terminus assumed
SMILES: CCCCCCCCCCCCCCCC(=O)N[C@@H](CCC(=O)N[C@@H](CCC(=O)NCCCC[C@H](NC(=O)[C@H](CC(=O)O)NC(=O)[C@H](CO)NC(=O)[C@H](CC(C)C)NC(=O)[C@H](Cc1ccccc1)NC(=O)[C@@H](NC(=O)CNC(=O)[C@H](CCC(N)=O)NC(=O)[C@@H](CO)NC(=O)[C@@H](N)Cc1c[nH]cn1)[C@@H](C)O)C(=O)N[C@@H](CO)C(=O)N[C@@H](CCCCN)C(=O)N[C@@H](CC(C)C)C(=O)N[C@@H](CC(C)C)C(=O)N[C@@H](CC(=O)O)C(=O)N[C@@H](CO)C(=O)N[C@@H](CCCNC(=N)N)C(=O)N[C@@H](CCCNC(=N)N)C(=O)N[C@@H](C)C(=O)N[C@@H](CCC(N)=O)C(=O)N[C@@H](CC(=O)O)C(=O)N[C@@H](Cc1ccccc1)C(=O)N[C@H](C(=O)N[C@@H](CCC(N)=O)C(=O)N[C@@H](Cc1c[nH]c2ccccc12)C(=O)N[C@@H](CC(C)C)C(=O)N[C@@H](CCSC)C(=O)N[C@@H](CCC(N)=O)C(=O)N[C@H](C(N)=O)[C@@H](C)O)C(C)C)C(=O)O)C(=O)O
B3: TP552 (peptide)
peptide: H[dS]QGTFLSDYSKLLDSRAAQDFVQWLLQT-NH2
modifications: N-terminus assumed
SMILES: CC(C)C[C@H](NC(=O)[C@H](CC(C)C)NC(=O)[C@H](CCCCN)NC(=O)[C@H](CO)NC(=O)[C@H](Cc1ccc(O)cc1)NC(=O)[C@H](CC(=O)O)NC(=O)[C@H](CO)NC(=O)[C@H](CC(C)C)NC(=O)[C@H](Cc1ccccc1)NC(=O)[C@@H](NC(=O)CNC(=O)[C@H](CCC(N)=O)NC(=O)[C@@H](CO)NC(=O)[C@@H](N)Cc1c[nH]cn1)[C@@H](C)O)C(=O)N[C@@H](CC(=O)O)C(=O)N[C@@H](CO)C(=O)N[C@@H](CCCNC(=N)N)C(=O)N[C@@H](C)C(=O)N[C@@H](C)C(=O)N[C@@H](CCC(N)=O)C(=O)N[C@@H](CC(=O)O)C(=O)N[C@@H](Cc1ccccc1)C(=O)N[C@H](C(=O)N[C@@H](CCC(N)=O)C(=O)N[C@@H](Cc1c[nH]c2ccccc12)C(=O)N[C@@H](CC(C)C)C(=O)N[C@@H](CC(C)C)C(=O)N[C@@H](CCC(N)=O)C(=O)N[C@H](C(N)=O)[C@@H](C)O)C(C)C

These binders were tested against T1, human glucagon receptor (human, UniProt P47871 26-477) (assay: cell-based or functional assay).
T1 sequence (P47871 26-477): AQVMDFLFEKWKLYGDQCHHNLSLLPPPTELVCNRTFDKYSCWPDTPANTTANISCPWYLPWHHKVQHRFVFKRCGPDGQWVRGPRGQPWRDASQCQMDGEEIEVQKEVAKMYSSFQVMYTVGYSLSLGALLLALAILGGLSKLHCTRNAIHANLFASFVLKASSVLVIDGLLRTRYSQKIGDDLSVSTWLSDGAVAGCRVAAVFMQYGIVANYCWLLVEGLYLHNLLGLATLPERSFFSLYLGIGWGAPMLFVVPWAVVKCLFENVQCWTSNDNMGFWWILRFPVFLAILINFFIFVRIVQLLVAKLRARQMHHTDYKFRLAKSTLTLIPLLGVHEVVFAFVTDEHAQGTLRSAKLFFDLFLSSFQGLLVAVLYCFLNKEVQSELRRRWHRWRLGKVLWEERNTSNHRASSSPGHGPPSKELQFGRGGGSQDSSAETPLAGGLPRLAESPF
For HSQGTFTSDYSKYLDSRRAHDFVQWLLNT-NH2 [PD29], the “EC50 hGCGR (cAMP activity assay)” value was 0.02 nM.

Each binder was assayed against T2, human GLP-1 receptor (human, UniProt P43220 24-463) (assay: cell-based or functional assay).
In the case of HSQGTFTSDYSKYLDSRRAHDFVQWLLNT-NH2 [PD29], the “EC50 hGLP1R (cAMP activity assay)” value is reported as 0.02 nM.

Target: T1, human glucagon receptor
Assay: cell-based or functional assay
Remark: another data set of the same source
With HSQGTFTSDYSKYLDSRRAHDFVQWLLNT-NH2 [PD29] the “EC50 hGCGR (cAMP activity assay)” value was 0.02 nM. For HSQGTFTSDYSKYLDNKRAQDFVQWLMQT-NH2 [PD37], the “EC50 hGCGR (cAMP activity assay)” value was 0.16 nM. In the case of B1, the “EC50 hGCGR (cAMP activity assay)” value is reported as 0.01 nM. B2 was tested, and the “EC50 hGCGR (cAMP activity assay)” value was 0.04 nM. B3 was tested, and the “EC50 hGCGR (cAMP activity assay)” value was 0.02 nM.

Target: T2, human GLP-1 receptor
Assay: cell-based or functional assay
Remark: another data set of the same source
With HSQGTFTSDYSKYLDSRRAHDFVQWLLNT-NH2 [PD29] the “EC50 hGLP1 (cAMP activity assay)” value was 0.02 nM. For HSQGTFTSDYSKYLDNKRAQDFVQWLMQT-NH2 [PD37], the “EC50 hGLP1 (cAMP activity assay)” value was 0.05 nM. In the case of B1, the “EC50 hGLP1 (cAMP activity assay)” value is reported as 0.02 nM. For B2, the “EC50 hGLP1 (cAMP activity assay)” value was 5 nM. B3 was tested, and the “EC50 hGLP1 (cAMP activity assay)” value was 5 nM.
